Test results: paper PMC10685452
Where no end group is shown, it is not given here.

Target: T1, hGOAT-eGFP (human ghrelin O-acyltransferase with C-terminal eGFP and His10 tag) (human) (UniProt Q96T53)
T1 sequence: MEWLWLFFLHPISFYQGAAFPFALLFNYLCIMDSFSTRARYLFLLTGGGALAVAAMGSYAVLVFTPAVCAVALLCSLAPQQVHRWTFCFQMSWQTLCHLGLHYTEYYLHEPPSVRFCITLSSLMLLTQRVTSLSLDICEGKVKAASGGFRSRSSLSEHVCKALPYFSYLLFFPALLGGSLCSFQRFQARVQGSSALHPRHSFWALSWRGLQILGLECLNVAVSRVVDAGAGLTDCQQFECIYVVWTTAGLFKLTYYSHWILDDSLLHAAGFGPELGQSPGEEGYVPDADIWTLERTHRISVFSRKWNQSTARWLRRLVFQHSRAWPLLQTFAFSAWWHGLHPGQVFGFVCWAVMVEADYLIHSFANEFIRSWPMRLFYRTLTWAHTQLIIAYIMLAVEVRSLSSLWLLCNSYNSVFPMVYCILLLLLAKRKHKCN

B1: fluorescently labeled ghrelin mimetic peptide GSSFLC-NH2 (acrylodan-labelled) (peptide)
peptide: GSSFLC-NH2
modifications: not fully specified (residue 6); printed as GSSFLC_NH2_; ends and bridges not checked; also: acrylodan label, site not given here
  ghrelin octanoylation activity of the MEGA-9 solubilisation supernatant of hGOAT-eGFP (HPLC, conversion of the fluorescent peptide substrate to the octanoylated product): 20%
